Like-named read-outs stand apart in the source and are kept apart here.
How the values were obtained:
[1] = target: HLA-A2 on unloaded T2 cells (human); assay: flow cytometry, T2 cells
[2] = target: HLA-A2 on cells (tumor cell lines, normal primary cells, PBMCs) (human); assay: flow cytometry, Loucy cells
[3] = target: HLA-A2 on cells (tumor cell lines, normal primary cells, PBMCs) (human); assay: flow cytometry, PBMCs #IB, 10 µg/ml
[4] = target: HLA-A2 on cells (tumor cell lines, normal primary cells, PBMCs) (human); assay: flow cytometry, 501A cells
[5] = target: Unloaded T2 (Homo sapiens); assay: flow cytometry, unloaded T2 cells
[6] = target: HLA-A2 on cells (tumor cell lines, normal primary cells, PBMCs) (human); assay: flow cytometry, 'Umbryonic cells' #HUE-1, 10 µg/ml
[7] = target: HLA-A2 on cells (tumor cell lines, normal primary cells, PBMCs) (human); assay: flow cytometry, SET-2 cells, 10 µg/ml
[8] = target: HLA-A2 on cells (tumor cell lines, normal primary cells, PBMCs) (human); assay: flow cytometry, ST486 cells, 10 µg/ml
[9] = target: HLA-A2 on cells (tumor cell lines, normal primary cells, PBMCs) (human); assay: flow cytometry, Malme-3M melanoma cells
[10] = target: HLA-A2 on cells (tumor cell lines, normal primary cells, PBMCs) (human); assay: flow cytometry, KYSE-140 cells, 10 µg/ml
[11] = target: HLA-A2 on HLA-A2+ cells that do not express WT1 (tumor cell lines, normal primary cells); assay: flow cytometry on A498 cells (WT1 mRNA -)
[12] = target: HLA-A2 on unloaded T2 cells (human); assay: flow cytometry, unloaded T2 cells, 10 µg/ml
[13] = target: HLA-A2 on cells (tumor cell lines, normal primary cells, PBMCs) (human); assay: flow cytometry, astrocytes #1800, 10 µg/ml
[14] = target: HLA-A2/GPLD1 on T2 cells (human); assay: flow cytometry, T2 cells loaded with GPLD1 [..], 10 µg/ml
[15] = target: HLA-A2/KPNA1 on T2 cells (human); assay: flow cytometry, T2 cells loaded with KPNA1 [..], 10 µg/ml
[16] = target: HLA-A2 on unloaded T2 cells (human); assay: flow cytometry, unloaded T2 cells, 10 µg/ml; remark: listed apart in the source
[17] = target: HLA-A2/PAP 112-120 complex on T2 cells (human); assay: flow cytometry, T2 cells loaded with PAP112 [..], 10 µg/ml
[18] = target: HLA-A2/TyrD-S7 on T2 cells (human); assay: flow cytometry, T2 cells loaded with TyrD S7 [..], 10 µg/ml
[19] = target: HLA-A2/TyrD-S9 on T2 cells (human); assay: flow cytometry, T2 cells loaded with TyrD S9 [..], 10 µg/ml
[20] = target: HLA-A2/TyrD-S13 on T2 cells (human); assay: flow cytometry, T2 cells loaded with TyrD S13 [..], 10 µg/ml
[21] = target: HLA-A2/TyrD-S16 on T2 cells (human); assay: flow cytometry, T2 cells loaded with TyrD S16 [..], 10 µg/ml
[22] = target: HLA-A2/TyrD-S20 on T2 cells (human); assay: flow cytometry, T2 cells loaded with TyrD-S20 [..], 10 µg/ml
[23] = target: HLA-A2/TyrD-S22 on T2 cells (human); assay: flow cytometry, T2 cells loaded with TyrD-S22 [..], 10 µg/ml
[24] = target: HLA-A2 on cells (tumor cell lines, normal primary cells, PBMCs) (human); assay: flow cytometry, 624.38 melanoma cells, 10 µg/ml
[25] = target: HLA-A2/NFACT on T2 cells (human); assay: flow cytometry, T2 cells loaded with NFACT peptide
[26] = target: HLA-A2 on cells (tumor cell lines, normal primary cells, PBMCs) (human); assay: flow cytometry, Malme-3M melanoma cells, 10 µg/ml
[27] = target: HLA-A2 on cells (tumor cell lines, normal primary cells, PBMCs) (human); assay: flow cytometry, renal epithelial cells 4120, 10 µg/ml
[28] = target: HLA-A2/WT1-S10 on T2 cells (human); assay: flow cytometry, peptide-loaded T2 cells (10^-4-10^-5 M)
[29] = target: HLA-A2/WT1-S11 on T2 cells (human); assay: as above
[30] = target: HLA-A2/WT1-S16 on T2 cells (human); assay: as above
[31] = target: HLA-A2/WT1-S6 on T2 cells (human); assay: as above
[32] = target: HLA-A2/WT1-S7 on T2 cells (human); assay: as above
[33] = target: HLA-A2/Tyrosinase369-377 complex on cells (human); assay: flow cytometry, T2 cells loaded with TyrD [..], 10 µg/ml
[34] = target: HLA-A2/WT1 126-134 complex on T2 cells (human); assay: flow cytometry, T2 cells loaded with WT1 peptide 1x10e-4M
[35] = target: HLA-A2/MAGE-A4 230-239 complex on cells (human); assay: flow cytometry, T2 cells loaded with MAGE-A4 [..], 10 µg/ml
[36] = target: HLA-A2 on cells (tumor cell lines, normal primary cells, PBMCs) (human); assay: flow cytometry, colonic smooth muscle cells 2940, 10 µg/ml
[37] = target: HLA-A2/TyrD-S18 on T2 cells (human); assay: flow cytometry, T2 cells loaded with TyrD-S18 [..], 10 µg/ml
[38] = target: HLA-A2/TyrD-S19 on T2 cells (human); assay: flow cytometry, T2 cells loaded with TyrD-S19 [..], 10 µg/ml
[39] = target: HLA-A2/TyrD-S11 on T2 cells (human); assay: flow cytometry, T2 cells loaded with TyrD S11 [..], 10 µg/ml

BB7.2 (antibody) showed a GeoMean [1] of 1380, a GeoMean [2] of 734 and an MFI [3] of 552. The GeoMean [4] was 1290, the MFI [5] was 290 and the MFI [6] was 553. It also gave an MFI [7] of 274, an MFI [8] of 681 and an MFI [9] of 372. The MFI [10] was 36.1, the MFI [11] was 350 and the MFI relative to background [12] was 417. The MFI [13] was 751, the MFI relative to background [14] was 364 and the MFI relative to background [15] was 729. It also gave an MFI relative to background [16] of 286, an MFI relative to background [17] of 1170 and an MFI relative to background [18] of 666. The MFI relative to background [19] was 768, the MFI relative to background [20] was 749 and the MFI relative to background [21] was 421. The MFI relative to background [22] was 445, the MFI relative to background [23] was 464 and the MFI [24] was 311. The MFI [25] was 2720, the MFI [26] was 540 and the MFI [27] was 889. For the same substance, the MFI [28] was 450, the MFI [29] was 449 and the MFI [30] was 379. The MFI [31] was 500, the MFI [32] was 592 and the MFI relative to background [33] was 561. For the same substance, the MFI [34] was 722, the MFI relative to background [35] was 965 and the MFI [36] was 563. It also gave an MFI relative to background [37] of 838, an MFI relative to background [38] of 555 and an MFI relative to background [39] of 473.

Source: patent US20180171024A1
